Source: the RNAGym collection of RNA variant scans (doi:10.1073/pnas.2313332121)

B1: TPR t1 (parent)
chain: GACCAAUCUGCCCUCAGAGCUCGAGAACAUCUUCGGAUGCAGAGGAGGCAGGCUUCGGUGGCGCGAUAGCGCCAACGUCCUCAACCUCCAAUGCAUCCCACCACAUGAUGAUGCCUGAAGAGCCUUGGUUUUUUG

Variants of: B1
Assay: polymerase ribozyme fitness, log enrichment relative to wild type (log ratio); higher = more active; in vitro selection for triplet polymerase activity
How it was run: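 Streptavidin-bead capture of gel-excised extended constructs, followed by RT-PCR, closed a single triplicate in vitro selection round. That round began by annealing PCR-built, transcribed mutant libraries of each subunit of a heterodimeric triplet polymerase ribozyme with a biotinylated primer, the partner subunit and triplets, then incubating them frozen at −7 °C. After Illumina sequencing of inputs and outputs, genotypes needed ≥10 input reads and ≥1 read per output. Fitness is the base-2 logarithm of genotype enrichment over wild-type enrichment, using inverse-variance-weighted replicate averages.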

Variant | polymerase ribozyme fitness (log ratio)
G69A C70U | -3.12
G63C U78G C98U | -2.14
G69C U96A | -2.44
C64G C70A G93A C101A G120A G127A U131G | -6.32
C64U G117U | -1.28
G63U A105G | -3.13
G69C C123A | -0.685
C70A G128C | -4.69
C70A C99U | -5.26
G69A G77A C86U U112A | -2.89
A68G U112G | -2.31
G63U A84C | -1.52
C70A U87G | -1.73
G69C A90C A91G A108C U112A | -6.22
G69A C70U C124A | -4.91
G69A C102U | -4.72
G69U C104G | -4.34
G69U C104A | -0.638
G69U U87C C104A | -0.553
A68G C97A | -7.14
C64U A118G U129G | -1.07

Variant | polymerase ribozyme fitness (log ratio)
C64A G113C A118G | -6.38
G69U A103G U106A | -4.7
C70A C89U | -2.29
C70A C88G U125G | -3.18
C70A A90G | -1.9
G63C G117A | -1.45
C64U C97U | -1.3
C64U A83U | 0.866
G69A G120U U130A | -2.09
G69U G71A A75U A103U C124G | -3.98
G69C G122A | -1.53
G63C U81G | -4.28
G63A U112A G122C | -1.55
G63C U87A U130C G135U | -1.49
C64U U130C | -0.0426
C64A C70G A95U G110C C114U | -5.6
C64U A111C C115A G127A | -4.2
C64U C104G U109A | -6.28
G69C A95G | -1.13
G69U U78A A91U A111C | -0.0328
C64U U96C U132A | -0.407

Variant | polymerase ribozyme fitness (log ratio)
C70G C124U G128C | -3.97
G63U C79G | -3.17
G63U G120C | 0.0622
G63U U129C | -1.11
C64U U81A | -0.925
C64U U87A U109C | -5.61
G63C C115G | -2.43
G69C G120A | -0.926
G63U G71C G113A | -6.74
A68U G120A | -3.93
A68U G120C | -5.33
G69U A103C | -1.85
C70A U78C G113A | -2.47
C64U C101G | -1.69
G69U C94U C101A | -0.271
G69A G77C C94U | -4.05
C70A C115U | -2.84
G69U C79G | -1.63
C64G A111G | -5.39
G69A C73A C82A G120A G128A | -3.86
G69C C115A | -0.724

Variant | polymerase ribozyme fitness (log ratio)
G69C C115U | -1.75
G63U C85G G113A | -2.68
C70A U112A G113A | -2.47
G69A U81G A84C G93U C97G U112A | -6.86
C70A C114A | -2.64
A66U U78C U87A A111U | -4.73
C64U C82G C88U U131G | -0.778
G69U C86G | 0.0893
C70G C72G G110U | -6.42
G63C G93A | -1.12
A66C U133A | -0.805
G69U C86G U96G C114A | -2.17
G63U U81G C97U U106A G120A U133C | -3.57
G63U U78G U81A A118U U129C | -4.83
G63C C97A G120C U126A | -6.28
G69C U106A | -1.14
A66G G117C C124U U132A | -6.03
G63U C86G A90U C104A G110U | -6.48
G63A U78G U112A | -2.03
C64U A66U | -0.148
C64A C88G G110U | -6.03
